Columns and labels:
IGF-I levels = assay: Single-dose pharmacodynamics, IGF-I levels in Rhesus monkeys; assay type: in vivo; settings: single dose 1 mg/kg intravenously or subcutaneously; seven-day study
Description: The placebo was 0.5 ml formulation buffer administered subcutaneously. IGF-1 levels were determined as in Example XIII.

[1] = In vivo half-life of pegylated wild-type hGH in rats
hGHbp = biological target: T1, hGHbp (Homo sapiens, UniProt P10912); settings: Lowman et al., J. Biol. Chem.; cited from earlier work
T1 construct: the extracellular domain of its receptor (hGHbp)
T1 sequence (P10912 19-256 limits assumed): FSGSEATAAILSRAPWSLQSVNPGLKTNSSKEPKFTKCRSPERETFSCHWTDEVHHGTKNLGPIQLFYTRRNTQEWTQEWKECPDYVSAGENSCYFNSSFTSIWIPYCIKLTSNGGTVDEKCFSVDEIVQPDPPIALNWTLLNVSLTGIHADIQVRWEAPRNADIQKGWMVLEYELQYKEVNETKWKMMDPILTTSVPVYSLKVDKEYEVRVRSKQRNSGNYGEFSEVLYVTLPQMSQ

Molecule: PEG-4/5-B2036: B2036 preparation containing primarily conjugates with four and five PEG(5000) groups
- IGF-I levels after single injection (IGF-I levels): reduced at one day after administration, continued to decrease until four days after administration, and remained low throughout the seven-day study

Molecule: conjugate containing five PEG(5000) groups: pegylated wild-type hGH, approximately 48 kD
- longer half-life than the non-pegylated protein [1]: ~11 fold

Molecule: conjugate containing seven PEG groups: pegylated wild-type hGH, approximately 57 kD
- longer half-life than the non-pegylated protein [1]: ~18 fold

Molecule: wild-type hGH conjugate containing two PEG(5000) groups: pegylated wild-type hGH, approximately 33 kD
- longer half-life than the non-pegylated protein [1]: ~4 fold

B1: human placental lactogen (protein, UniProt P0DML2 27-217, looked up)
Chorionic somatomammotropin …: VQTVPLSRLFDHAMLQAHRAHQLAIDTYQEFEETYIPKDQKYSFLHDSQTSFCFSDSIPTPSNMEETQQKSNLELLRISLLLIESWLEPVRFLRSMFANNLVYDTSDSDDYHLLKDLEEGIQTLMGRLEDGSRRTGQILKQTYSKFDTNSHNHDALLKNYGLLYCFRKDMDKVETFLRMVQCRSVEGSCGF
- binds weaker than hGH (hGHbp): ~ 2000 fold

From US5849535A (Genentech, Inc., priority 1996, dated 1998)
